Reference: paper PMC9407945 (Science immunology, 2022)
Substitutions are numbered along the chain they refer to.

B1: SW186 Fab (Fab, V domains shown)
VH: QVQLQQSGAELVKPGASVKISCKASGVAFSSYWMNWVKQRPGKGLEWIGQIYPGDGDTNYNGKFKGKATLTADKSSSTAYMQLSSLSSEDSAVYFCARGFIATVEETMDYWGQGTSVTVSS
VL: DIQMTQTTSSLSASLGDRVTISCRASQDISNYLNWYQQKPDGTVKLLIYYTSRLHSGVPSRFSGSGSGTDYSLTISNLEQEDIATYFCQQSHTLPWTFGGGTKLEIK
B2: humanized SW186 H4L1 (antibody, V domains shown)
VH: QVQLVQSGAEVKKPGSSVKVSCKASGVAFSSYWMNWVKQAPGQGLEWIGQIYPGDGDTNYNGKFKGKATITADKSTSTAYMELSSLRSEDTAVYFCARGFIATVEETMDYWGQGTLVTVSS
VL: DIQMTQSPSSLSASVGDRVTITCRASQDISNYLNWYQQKPGKAPKLLIYYTSRLHSGVPSRFSGSGSGTDFTLTISSLQPEDFATYYCQQSHTLPWTFGGGTKLEIK
B3: humanized SW186 H4L4 (antibody, V domains shown)
VH: B2 VH
VL: B2 VL with A43T, P44V, F71Y, Y87F
B4: humanized SW186 H3L1 (antibody, V domains shown)
VH: B2 VH with K38R, K67R
VL: B2 VL
B5: humanized SW186 H1L4 (antibody, V domains shown)
VH: B2 VH with K38R, I48M, K67R, A68V, F95Y
VL: B2 VL with A43T, P44V, F71Y, Y87F
B6: humanized SW186 H2L4 (antibody, V domains shown)
VH: B2 VH with K38R, K67R, A68V
VL: B2 VL with A43T, P44V, F71Y, Y87F
B7: humanized SW186 H4L3 (antibody, V domains shown)
VH: B2 VH
VL: B2 VL with F71Y, Y87F
B8: humanized SW186 H2L2 (antibody, V domains shown)
VH: B2 VH with K38R, K67R, A68V
VL: B2 VL with Y87F
B9: humanized SW186 H1L3 (antibody, V domains shown)
VH: B2 VH with K38R, I48M, K67R, A68V, F95Y
VL: B2 VL with F71Y, Y87F
B10: humanized SW186 H2L1 (antibody, V domains shown)
VH: B2 VH with K38R, K67R, A68V
VL: B2 VL
B11: humanized SW186 H4L2 (antibody, V domains shown)
VH: B2 VH
VL: B2 VL with Y87F
B12: humanized SW186 H1L2 (antibody, V domains shown)
VH: B2 VH with K38R, I48M, K67R, A68V, F95Y
VL: B2 VL with Y87F
B13: humanized SW186 H2L3 (antibody, V domains shown)
VH: B2 VH with K38R, K67R, A68V
VL: B2 VL with F71Y, Y87F
B14: SW186 Fab (fragment antigen-binding region of SW186) (Fab, V domains shown)
VH: B1 VH
VL: B1 VL
B15: SW186 monoclonal antibody (murine-human chimeric, human IgG1 backbone) (antibody, V domains shown)
VH: B1 VH
VL: B1 VL

Each binder was assayed against SARS-CoV-2 spike ectodomain (S-ecto), Wuhan-hu-1, 2P (SARS-CoV-2, Wuhan-hu-1, UniProt P0DTC2, 2P mutation at residues 986 and 987, biotinylated (EZ-link NHS-sulfo-LC-Biotin) for the BLI assay) (assay: BLI). Details: both partners purified.

Binder	Kd [nM]
B1	1.09
B2	4.14
B3	1.57
B4	6.69
B5	5.03
B6	3.14
B7	2.4
B8	12.6
B9	4.37
B10	18.1
B11	5.86
B12	26.2
B13	3.72

What follows are binders tested against T1, SARS-CoV-2 spike ectodomain (S-ecto), Wuhan-hu-1 strain, residues 1-1208 with 2P mutation (SARS-CoV-2, Wuhan-hu-1, UniProt P0DTC2, 2P mutation at residues 986 and 987) (assay: BLI). Details: both partners purified.

Binder	Kd [nM]
B14	~1

Each binder was assayed against T1, SARS-CoV-2 spike ectodomain (S-ecto), … (assay: cell-based or functional assay). Details: not given.

Binder	neutralisation of infectious mNeonGreen SARS-CoV-2, WA1 strain, IC50 [µg/mL]
B15	~0.04
